# Measured values taken from patent US20100047228.
# Test system: delta-plasminogen
# Sequence (chain, as listed by the source mutant): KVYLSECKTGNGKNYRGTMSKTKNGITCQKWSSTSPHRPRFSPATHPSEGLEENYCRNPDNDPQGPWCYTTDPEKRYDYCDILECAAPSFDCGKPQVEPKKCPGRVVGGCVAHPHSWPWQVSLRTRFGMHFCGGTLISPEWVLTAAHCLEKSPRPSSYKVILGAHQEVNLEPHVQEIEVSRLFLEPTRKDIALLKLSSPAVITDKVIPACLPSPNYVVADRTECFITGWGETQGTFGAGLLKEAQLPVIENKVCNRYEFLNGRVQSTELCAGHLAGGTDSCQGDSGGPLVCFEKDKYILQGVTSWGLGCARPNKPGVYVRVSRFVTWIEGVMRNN
substance,measurement,value
urokinase,conversion of one-chain delta-plasminogen into two-chain delta-plasmin (reduced SDS-PAGE),delta-plasminogen indeed can be activated by all three plasminogen activators
